These results are taken from publication PMC12830090.

Common to all, as to assay: NMR
One series concerns the target Cys31 (UniProt position 31, FGTDWCGHCQA). The settings on record: 298 K; reduced (dithiol) Patrx2, with DTT.
For another series, the target named is Cys34 (UniProt position 34, DWCGHCQAAQP). The settings on record: 298 K; reduced (dithiol) Patrx2, with DTT.
Another series deals with His33 (UniProt position 33, TDWCGHCQAAQ). The settings on record: 298 K.

“Patrx2 (atypical thioredoxin, PA2694) (Pseudomonas aeruginosa)”: the pKa in the series with Cys31 was 5.8; with Cys34 it was “greater than 11.5”; in the series with His33 (oxidised (C31-C34 disulfide) Patrx2, without DTT), “less than 5”; with His33 (reduced (dithiol) Patrx2, with DTT), 6.3.

Broadly, the pKa is the pH at which an ionisable group is half protonated. Low readings indicate a stronger acid or weaker base, high ones a weaker acid or stronger base.
